Data published in publication PMC8041869.
pEC50: −log10 of the molar value.

Molecular target: SARS-CoV-2 S-protein S1 subunit (SARS-CoV-2)
Test: ELISA

Substance: human ACE2 extracellular domain, wildtype, Fc-tagged dimeric form (from UniProt Q9BYF1-1 18-615) (Fc fusion)
- pEC50: 7.98
